Measured values taken from PMC2817712, “Using Structural Information to Change the Phosphotransfer Specificity of a Two-Component Chemotaxis Signalling Complex” (PLoS Biology, 2010).
Where a chain is given by its changes, count along the chain named. In names and notes the source's numbering stands. Each block holds one binder with its values, some of them ahead of it.

Target: T1, CheA3P1, the isolated P1 (Hpt, histidine-containing phosphotransfer) domain of CheA3 (residues 1-135), … (R. sphaeroides)
T1 construct: Analyte in SPR and partner in the unphosphorylated crystal structure; also called Hpt domain of CheA3
Experiment: SPR; Biacore T100, 25°C; response regulator biotinylated in a C-terminal tag and held on streptavidin (200-1,500 RU); CheA3P1 injected at 120 nM to 2 mM; standard buffer (30 mM Hepes pH 7.5, 150 mM NaCl, 5 mM sodium acetate, 2 mM manganese chloride, 2 mM TCEP) with 0.05% Tween 20; equilibrium binding, 1:1 Langmuir model
Conditions: both partners purified

- Kd: > 1000 µM
B1: CheY6(M13S) with an engineered C-terminal biotinylation tag, for SPR surfaces (natural protein)
chain: PYNVMIVDDAASMRLYIASFIKTLPDFKVVAQAANGQEALDKLAAQPNVDLILLDIEMPVMDGMEFLRHAKLKTRAKICMLSSVAVSGSPHAARARELGADGVVAKPSGTVSHDLEEKTGGELARTMRTLMAA
modifications: biotin within the engineered C-terminal tag (enzymatic)

- Kd: > 1000 µM
B2: CheY6(M13S,L16S,Y17M) with an engineered C-terminal biotinylation tag, for SPR surfaces (natural protein)
chain: B1 chain with L15S, Y16M
modifications: biotin within the engineered C-terminal tag (enzymatic)
